B1: HDAC6 (parent)
chain: YVHHQALLDVKNIAHQNKFGEDMP
B2: ZNF449 (parent)
chain: EPHKCPECGKRFLRSSDLYRHQRL

Variants of: B1
Assay: protein stability index of a GFP-peptide fusion (GPS, HEK-293T) (PSI 1-6); higher = more stable
Conditions: c terminus: a fixed tail appended
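Also: lentivirally expressed fusions sorted by FACS into six bins by GFP to DsRed ratio, PSI derived from sequencing read proportions per bin multiplied by bin number.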

Protein stability index, by site and new letter:
V2: L 2.56, F 2.44, K 4.15, Q 2.77, G 3.43, A 3.16, S 3.56, M 3.17, E 4.55, N 4.12, I 1.81, Y 2.98, C 2.02, W 2.21, H 1.65, R 3.69, T 2.95, D 4.33, P 3
H3: A 1.55, C 1.89, G 2.03, I 1.66, E 2.81, D 2.14, F 1.48
Y1: V 3.14, W 2.98, P 4.1, H 3.66, K 4.06, F 1.94, D 4.81, S 4.29, I 3.21, L 3.3, Q 4.14, E 4.05, A 4.15, N 4.39, M 3.49, C 3.29, G 4.19, T 3.75, R 3.59

Variants of: B2
Assay: as above
Conditions: c terminus: a fixed tail appended

Protein stability index of substitutions, site by site:
S15: C 3.42, D 3.81, G 3.53, W 3.52, P 3.25, V 3.58, F 3.51, M 3.98, H 3.64, R 3.53, A 4.16, K 4.27, N 3.51, Y 4.03, I 3.27, L 3.86, E 4.54, Q 4.11, T 3.9
R20: G 3.21, Y 3.32, N 4.21, V 4.02, H 4.14, A 4.66, C 3.69, K 4.43, W 3.6, T 4.01, D 4.5, E 4.63, S 4.2, I 3.56, L 3.55, Q 4.29, M 3.83, P 2.88, F 3.42
G9: T 2.32, V 2.54, Y 2.8, W 2.12
D17: G 2.58, I 2.04, M 2.35, R 2.34, C 2.66, Y 2.21, N 2.22, W 1.72, K 2.33, E 3.82, T 2.36, L 2.81, P 2.38, V 1.69, F 1.68, H 2.87, Q 2.59, A 2.32, S 2.61
L13: G 3.88, N 4.08, Y 4.09, I 3.5, R 3.99, D 4.82, P 3.74, W 3.55, M 4.48, Q 4.66, A 4, E 4.78, V 4.32, F 3.35, H 3.85, C 4.05, K 4.5, T 4.46, S 3.92
L18: G 3.05, D 2.87, E 2.92, F 3.44, W 3.37, C 3.68, H 3.5, A 3.08, Y 2.97, I 2.52, Q 2.46, P 2.37, V 3.12, K 2.74, N 2.67, T 2.48, M 3.46, R 3.3, S 3.15
Y19: E 4.63, R 3.55, M 3.65, W 2.86, N 3.4, V 3.89, C 4.7, L 4.04, D 4.68, S 3.68, H 3.99, T 3.6, G 2.92, P 2.62, F 3.96, K 3.92, I 3.86, Q 3.84, A 4.05
F12: Q 2.03, M 2.45, A 1.86, G 2.12, R 2.15, T 2.32, D 2.13, C 1.67, K 2.88, Y 2.72, E 2.34, W 1.93, L 2.54, H 3.73, S 1.86, P 2.51, N 2.06, V 1.95, I 2.1
R23: E 4.47, M 3.47, Y 3.75, T 4.01, I 3.01, K 4.27, D 4.32, H 3.84, W 2.94, V 3.16, A 3.74, P 2.98, L 3.7, S 4.11, Q 4.43, N 4.4, G 3.54, C 5.02, F 3.43
L24: M 3.94, F 3.23, C 4.97, N 4.29, T 4.06, E 4.95, K 4, H 4.18, W 3.01, A 3.83, Y 3.31, P 3.85, I 3.63, V 3.82, R 3.84, D 4.98, Q 4.6, S 4.4, G 4.52
R11: E 4.84, C 4.31, T 5.01, K 4.16, G 4, S 5.13, M 4.26, I 4.63, L 4.57, Y 4.39, N 4.24, P 3.68, H 4.07, Q 4.44, A 4.71, D 4.27, V 4.57, F 4.41, W 4.26
K10: D 2.44, W 2.13, M 3.99, S 3.21, I 3.32, F 2.52, V 3.31, E 3.63, N 2.52, L 3.65, Q 4.08, H 3.15, P 2.33, G 2.11, A 3.97, Y 2.5, C 2.48, R 3.55, T 3.5
S16: H 3.55, I 3.26, D 4.06, F 2.09, N 3.7, K 3.81, A 3.82, C 3.62, P 2.99, R 3.52, G 3.54, W 2.66, M 3.4, T 3.94, E 4.99, Y 3.05, Q 4.27, V 3.81, L 2.72
H21: R 2.07, F 2.25, Y 2.1, W 1.29, E 2.15, Q 1.91, P 2.14, T 2.34, L 2.4, M 2, K 2.67, I 1.64, N 2.12, A 1.62, C 2.15, V 2.11, G 1.84, D 2.79, S 2
Q22: R 3.84, V 3.76, P 2.4, W 2.78, I 2.91, S 3.16, Y 3.44, C 3.97, G 2.83, N 3.36, M 3.83, E 3.92, L 3.93, D 2.39, F 3.14, H 3.27, T 3.3, K 3.28, A 3.04
R14: Q 3.36, D 4.29, N 4.78, I 2.95, F 3.76, L 3.51, W 2.75, A 3.89, E 3.84, P 2.2, S 4.61, C 3.86, G 2.33, H 3.97, Y 3.59, T 4.61, V 3.2, K 4.11, M 3.61
